# Data as given in US20100004432, “APTAMER AGAINST MIDKINE AND USE THEREOF” (RIBOMIC INC., published 2010).
# T1: midkine (full-length) (Homo sapiens, UniProt P21741 P21741:23-143)
# T1 sequence: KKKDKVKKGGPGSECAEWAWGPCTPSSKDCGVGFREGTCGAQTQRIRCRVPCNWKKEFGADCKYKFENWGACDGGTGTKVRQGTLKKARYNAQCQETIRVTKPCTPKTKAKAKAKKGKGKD
# How the values were obtained:
# [1] = molecular target: T1, midkine (full-length); experiment: cell_activity; conditions: 500 nM; control
# [2] = molecular target: T1, midkine (full-length); experiment: cell_activity; UMR106 migration inhibition, 500 nM RNA; conditions: tags: expressed in yeast
# Description: 30 μL of 1.5 μM midkine was applied to the outer surface of the membrane of Chemotaxicell (membrane pore diameter 8 μm, manufactured by Kurabo) to immobilize the midkine to the outer surface of the membrane. The midkine-immobilized Chemotaxicell was placed on a 24-well culture plate containing 500 μL of a medium (supplemented with 0.3% bovine serum albumin, Dulbecco's Modified Eagle's medium) supplemented with each RNA aptamer added thereto at 100 nM. 200 μL of UMR106 cells were placed in the inner layer of the Chemotaxicell chamber at a density of 1×10⁶ cells/mL, and cultured at 37° C. for 4 hours. The cells remaining in the inner layer of the Chemotaxicell chamber were removed, and the cells that had infiltrated and adhered to the midkine-applied surface were fixed with methanol. The Chemotaxicell chamber was immersed in a 1% aqueous solution of Crystal Violet for 30 minutes to stain the cells. After the Chemotaxicell chamber was washed with distilled water and dried, the pigment was extracted with a mixed solution of 200 μL of 1% SDS and 1% triton X100. 150 μL of the extract was transferred to a 96-well microplate, and its absorbance at 590 nm was determined.
# The aptamer shown by SEQ ID NO:5 is 77 nucleotides long, having the 2′-position of the ribose of the pyrimidine nucleotide fluoro-substituted. To enable the chemical synthesis, to reduce the toxicity, and to improve the stability in the blood, miniaturization and stabilization of this aptamer were performed. The operations of miniaturization and stabilization were performed on the basis of the secondary structure estimated by the MFOLD program, and the activity was evaluated by a cell migration inhibition experiment. The RNA concentration in the cell migration inhibition experiment was 100 nM or 500 nM. Since some errors occur in experimental results depending on cell condition, a previously assayed sample was included as a positive control in each measurement.
# [3] = molecular target: T1, midkine (full-length); experiment: as above; conditions: tags: expressed in yeast; remark: listed apart in the source
Molecule,activity [3],further results
tRNA,–,activity (% of SEQ 40 inhibition) [1]: 28
"GGGAAGGAGGAAGUGCACAGGGGUUGGUGUCGGGUGCAC (ssRNA, 5' PEG2000; as 61-4 but a(M)gg(M)g(M)g(M) and ggg(M)u(F)) [SEQ ID NO:61-9]",–,activity [2]: 39 % of SEQ ID NO:40
"GGGAGAGGAGAAGAGGAAGUGCACAGGGGUUGGUGUCGGGUGCAC (ssRNA, 5' PEG2000-C12; 3' idT; 2'-F pyrimidines; 2'-OMe all A in 5' single-stranded part) [SEQ ID NO:45-1]",100 % of SEQ ID NO:40,–
"GGGAGAGGAGAAGAGGAAGUGCACAGGGGUUGGUGUCGGGUGCAC (ssRNA, 2'-F pyrimidines; 2'-OMe all A in 5' single-stranded part and A, G in end stem: gu(F)g(M)c(F)a(M)c(F) and u(F)g(M)c(F)a(M)c(F)) [SEQ ID NO:45-4]",100 % of SEQ ID NO:40,–
"GGGAGAGGAGAAGAGGAAGUGCACAGGGGUUGGUGUCGGGUGCAC (ssRNA, 2'-F pyrimidines; 2'-OMe all A in 5' single-stranded part and G in loop: agggg(M)u(F)u(F)g(M)g(M)u(F)g(M)u(F)c(F)) [SEQ ID NO:45-2]",100 % of SEQ ID NO:40,–
"GGGAGAGGAGAAGAGGAAGUGCACAGGGGUUGGUGUCGGGUGCAC (ssRNA, 2'-F pyrimidines; 2'-OMe all A in 5' single-stranded part and A, G in internal loop: a(M)g(M)ggg and c(F)g(M)g(M)g) [SEQ ID NO:45-3]",56 % of SEQ ID NO:40,–
